Each block holds one molecule with its values, some of them ahead of it.
Columns and labels:
[1] = molecular target: CD20 (membrane bound, on Daudi cells) (human) (UniProt P11836); assay: blocking assay by flow cytometry: Daudi cells pre-treated with ABX, washed, stained with PE-mouse anti-human CD20
[2] = molecular target: CD20 (membrane bound, on Daudi cells) (human) (UniProt P11836); assay: blocking assay by flow cytometry: Daudi cells pre-treated with ABX, then stained with labelled anti-human CD20
[3] = molecular target: CD20 (membrane bound, on Daudi cells) (human) (UniProt P11836); assay: flow cytometry, Daudi cells stained with Alexa-fluor 488 AR160 alone (middle panel, upper right quadrant)
[4] = molecular target: CD20 (membrane bound, on Daudi cells) (human) (UniProt P11836); assay: flow cytometry, Daudi cells stained with Alexa-fluor 488 AR160 and PE anti-human CD19 (right panel, upper left quadrant)
[5] = molecular target: CD20 (membrane bound, on Daudi cells) (human) (UniProt P11836); assay: flow cytometry, Daudi cells stained with Alexa-fluor 488 AR160 and PE anti-human CD19 (right panel, upper right quadrant)
[6] = molecular target: CD20 (membrane bound, on Daudi cells) (human) (UniProt P11836); assay: blocking assay by flow cytometry: Daudi cells pre-treated with pharmacy-made AR160 batch 1, then stained with labelled anti-human CD20 (the blocked antibody)
[7] = molecular target: CD20 (membrane bound, on Daudi cells) (human) (UniProt P11836); assay: blocking assay by flow cytometry: Daudi cells pre-treated with AR160, washed, stained with PE-mouse anti-human CD20 (the blocked antibody)
[8] = molecular target: CD20 (membrane bound, on Daudi cells) (human) (UniProt P11836); assay: flow cytometry on Daudi cells, ABX labelled with Alexa fluor 488
[9] = molecular target: CD20 (membrane bound, on Daudi cells) (human) (UniProt P11836); assay: blocking assay by flow cytometry: Daudi cells pre-treated with lab-made AR160, then stained with labelled anti-human CD20 (the blocked antibody)
[10] = test system: antibody complexation with ABX (bevacizumab); assay: Peptide competition assay on nanoparticle formation with bevacizumab; conditions: 10-fold molar excess of peptide
Protocol: Peptides were added at a 10-fold molar excess compared to antibody. Diameter was measured using a Malvern Nanosizer at a 1:200 dilution.
A similar experiment was performed using bevacizumab (FIG. 14B).

[11] = test system: rituximab, trastuzumab, bevacizumab, and muromonab; assay: Biacore surface plasmon resonance, albumin peptide library against antibodies; assay type: binding; conditions: peptides at 50-1.25 μg/mL in HBS running buffer
Protocol: (§1) An albumin peptide library was constructed with 18 amino acid peptides, each containing a 6 amino acid overlap, and each albumin peptide was run against rituximab fixed on a CMS chip. Peptides were suspended to 5-10 mg/mL in HBS-EP plus running buffer. Water insoluble peptides were dissolved in 10% DMSO (Sigma-Aldrich, St. Louis, Mo.). Rituximab was immobilized onto Biacore CMS (GE Healthcare, Chicago, Ill.) chips via amine coupling. Biacore X-100 (GE Healthcare, Chicago, Ill.) was used to screen the albumin peptide libraries over immobilized rituximab. Peptides were screened from 1-50 μg/mL with an exposure time of 120 seconds. Biacore X100 software was used to determine binding kinetics.
Peptides were run at 50, 25, 10, 5, 2.5, 1.25 μg/mL in HBS running buffer. Dissociation constants were determined by Biacore Evaluation Software. […] Diana, F. J., Veronich, K. & Kapoor, A. L. Binding of nonsteroidal anti-inflammatory agents and their effect on binding of racemic warfarin and its enantiomers to human serum albumin. J Pharm Sci 78, 195-199 (1989); Sudlow, G., Birkett, D. J. & Wade, D. N. The characterization of two specific drug binding sites on human serum albumin. Mol Pharmacol 11, 824-832 (1975).

[12] = molecular target: T1, ABRAXANE® (ABX) (Homo sapiens, UniProt P02768); assay: Binding of antibody to ABX, dissociation constant
T1 construct: purchased Celgene, Summit, N.J

[13] = molecular target: CD20 (membrane bound, on Daudi cells) (human) (UniProt P11836); assay: flow cytometry of Daudi cells, isotype control (negative control)
[14] = molecular target: CD20 (membrane bound, on Daudi cells) (human) (UniProt P11836); assay: flow cytometry on Daudi cells (negative control)
[15] = molecular target: T2, HSA peptide 4 (Homo sapiens, UniProt P02768); assay: Biacore surface plasmon resonance, antibody binding to HSA peptide 4
T2 construct: An albumin peptide library was constructed with 18 amino acid peptides
Protocol: as §1
(§2) The sequence of the variable region of the heavy chain where the binding site is located is provided in FIG. 13F for both bevacizumab (SEQ ID NO.: 1) and rituximab (SEQ ID NO.: 2). The 19-AA region of interest is underlined for bevacizumab (SEQ ID NO.: 8—[…]) and rituximab (SEQ ID NO.: 10—[…]), and share about 80% identity. FIG. 13G provides the sequences from each antibody that bind HSA.

[16] = molecular target: HSA peptide 40 (Homo sapiens, UniProt P02768); assay: Biacore surface plasmon resonance, antibody binding to HSA peptide 40
Protocol: as §1, §2

[17] = molecular target: full HSA protein (Homo sapiens, UniProt P02768); assay: Biacore surface plasmon resonance, antibody peptide binding to HSA
From the text: FIG. 13B represents binding of bevacizumab variable peptide 1 (SEQ ID NO.: 7) to HSA.
as §2

[18] = test system: Daudi human lymphoma cells; assay: Daudi human lymphoma xenograft tumor efficacy; assay type: in vivo, athymic nude mice; conditions: intravenous
Protocol: To test tumor efficacy, 5×10^6 Daudi human lymphoma cells were implanted into the right flank of athymic nude mice (Harlan Sprague Dawley, Indianapolis, Ind.). […] Tumor size was monitored 2-3 times/week and tumor volume was calculated with the following equation: (length*width^2)/2. Mice were sacrificed when the tumor size equaled 10% of the mouse body weight, or about 2500 mm^3. The day 10 percent change from baseline was calculated as follows: [(tumor size on treatment day-tumor size on day 10)/tumor size on treatment day]*100. Kaplan Meier curves were generated and median survival was calculated using GraphPad Prism software (GraphPad Software, Inc, La Jolla, Calif.).

[19] = molecular target: T3, CD20 (Homo sapiens, UniProt P11836); assay: Blocking of PE-mouse anti-human CD20 binding to CD20+ Daudi cells (flow cytometry); assay type: cell-based; conditions: Daudi cells pre-incubated with test article
T3 construct: host or cells: Daudi
T3 sequence (P11836 1-297): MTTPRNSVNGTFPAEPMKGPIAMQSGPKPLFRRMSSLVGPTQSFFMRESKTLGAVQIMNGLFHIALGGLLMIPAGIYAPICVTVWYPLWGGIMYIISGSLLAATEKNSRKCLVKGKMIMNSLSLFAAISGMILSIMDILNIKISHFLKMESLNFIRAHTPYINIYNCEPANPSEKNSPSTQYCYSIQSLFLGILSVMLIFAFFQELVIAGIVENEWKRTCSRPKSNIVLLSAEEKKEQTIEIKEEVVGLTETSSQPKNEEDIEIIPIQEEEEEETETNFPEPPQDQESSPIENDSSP
Protocol: After incubation, the cells were washed and stained with PE-mouse anti-human CD20 and enumerated by flow cytometry.

[20] = test system: CD20+ Daudi cells; assay: In vitro toxicity assay, EdU proliferation of Daudi cells; assay type: cell-based, human; conditions: rituximab 0-200 μg/mL overnight
Protocol: The level of proliferation was determined by staining cells with FITC labeled anti-EdU. The proliferation index was calculated by normalization to the untreated positive control.
Cell proliferation was measured with EdU, a thymidine analog, that was detected with a FITC conjugated anti-EdU and enumerated by flow cytometry.
The human B-cell lymphoma line, Daudi, (ATCC Manassa, Va.) were cultured in RPMI with 1% penicillin, streptomycin and glutamine (PSG) and 10% FBS. Cells were harvested and plated at 0.2×10^6 cells per well in 24 well plates. […] To measure proliferation, the Click-iT EdU (Molecular Probes, Eugene, Oreg.) kit was utilized. […] The cells were permeabilized with 1% saponin and intercalated EdU was labeled with a FITC-conjugated antibody. The proliferation index was determined by dividing the FITC positive cells from each treatment by the maximum proliferation of untreated EdU labeled cells.

[21] = molecular target: T4, human serum albumin (HSA) (human, UniProt P02768 25-609); assay: SPR (Biacore) of antibody variable-region peptides with full HSA
T4 construct: also called full HSA protein

% cells in the CD20+ gate after pre-treatment [1]: 82.9%
% cells in the CD20+ gate after pre-treatment [2]: 82.9%
Molecule: ABRAXANE® (albumin-bound paclitaxel nanoparticles) (from UniProt P02768 25-609)

% of cells in the AR160+ CD19+ quadrant [3]: 15.8%
% of cells in the AR160+ CD19- quadrant [4]: 3.95%
% of cells in the AR160+ CD19+ quadrant [5]: 73.8%
% cells in the CD20+ gate after pre-treatment [6]: 8.2%
% cells in the CD20+ gate after pre-treatment [7]: 6.6%
% positive cells [8]: 75%
% cells in the CD20+ gate after pre-treatment [9]: 6.6%
Molecule: AR160 (rituximab-albumin-paclitaxel nanoparticle complex) (from UniProt P02768 25-609)

Molecule: Bev Peptide 1: bevacizumab peptide, amino acids 111-125, SEQ ID NO.: 7 (DTAVYYCAKYPHYYGSSHWYF)
effect on particle size increase indicative of antibody complexation with ABX [10]: prevent the 30 nm increase in particle size

binding to the antibodies [11]: found to bind the antibodies
Molecule: HSA peptide 40: HSA amino acids 455-472, SEQ ID NO.: 5; maps to the Sudlow II site
effect on particle size increase indicative of antibody complexation with ABX [10]: prevent the 30 nm increase in particle size

binding affinity to ABX [12]: bind with a high affinity
Molecule: bevacizumab

% cells in the CD20+ gate [13]: 6.2%
% positive cells [14]: 6.2%
Molecule: isotype control antibody

binding to HSA peptide 4 [15]: bound
binding to HSA peptide 40 [16]: bound
Molecule: muromonab

binding to the full HSA protein [17]: did not bind
Molecule: muromonab peptide: peptide from muromonab corresponding to the albumin-binding region; probably SEQ ID NO.: 12 (DDHYCLDYWGQGTTLTVSSA)

Molecule: rituximab
median survival ([18]; RIT 12 mg/kg): 8 days
mice having responses by day 10 ([18]; RIT 12 mg/kg): 0%
percentage of mice alive at day 10 ([18]; RIT 12 mg/kg): 12%
median survival ([18]; RIT 18 mg/kg): 10.5 days
mice having responses by day 10 ([18]; RIT 18 mg/kg): 0%
percentage of mice alive at day 10 ([18]; RIT 18 mg/kg): 38%
binding affinity to ABX [12]: bind with a high affinity
dissociation constant for ABX [12]: in the picomolar range
inhibition of subsequent binding of anti-human CD20 antibody [19]: prohibit subsequent binding of the anti-human CD20 antibody
toxicity to Daudi cells [20]: not toxic

binding result [21]: no binding
Molecule: DDHYCLDYWGQGTTLTVSSA [muromonab peptide]

Source: patent US20210267930A1, “MODIFIED ANTIBODY-ALBUMIN NANOPARTICLE COMPLEXES FOR CANCER TREATMENT” (Mayo Foundation for Medical Education and Research, priority 2016, published 2021)
